Consider 34 sequences from the supplement of paper PMC11865577.

Common to all, as to assay: pull-down binding Z-score (relative to library population); higher = stronger binding
Conditions in all cases: RNA library: Library-2

The subject of data set [1] is TO-3-N3 (biotin conjugate). The method, boiled down:
(§1)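 Cy5- or Cy3-end-labelled RNA library (1 μg) was heat-folded in phosphate/NaCl/KCl buffer and incubated 60 min at 25 °C with streptavidin beads carrying 100 pmol biotin-conjugated small molecule. After three washes, bound RNA was eluted in hot SDS and hybridised 20 h at 55.5 °C to a DNA barcode microarray. Binding was scored by subtracting a beads-only control, averaging barcoded replicate probes after dropping highest and lowest, and converting to a Z-score against library mean and standard deviation.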

For data set [2], the system named is TO-3-N3-2 (biotin conjugate). Summed up:
as §1

The test system of data set [3] is TO-N3 (biotin conjugate). Summed up:
as §1

In data set [4] the test system is TO-N3-2 (biotin conjugate). The method, boiled down:
as §1

Regarding “AGUGCCAACAGACAAUUAUAUAACCACUUACCCGGGUCAGGGUUUAAAUGGUUACACU”, the “pull-down binding Z-score” value in data set [1] is -0.449; in data set [2] it was -0.123; in data set [3], -0.462; in data set [4], -0.739.

Consider “UCUCUCUCAUUUUGUUAACUUAGACAACCUGAGAGCUAAUAACACUAAAGGUUCAUUGCCUAUUAAUGUUAUAGUUUUUGAUGGUAAAUCAAAAUGUGAAGA [DMSMaPseq_invitro_SARS-CoV-2_Motif_146]”, for which the “pull-down binding Z-score” value in data set [1] was -0.765; in data set [2] it was -0.388; in data set [3], -0.723; in data set [4], -0.699.

In the case of “UAGAUGCUGUAAAUUUACUUACUAAUAUGUUUACACCACUAAUUCAACCUAUUGGUGCUUUGGACAUAUCAGCAUCUA [DMSMaPseq_invitro_SARS-CoV-2_Multi_30_ComplexLevel_1]”, the “pull-down binding Z-score” value was 0.39 in data set [1], -0.0621 in data set [2], 0.0803 in data set [3] and -0.105 in data set [4].

In the case of “CCUUCACUGUAGAAAAAGG [SHAPE_invivo_SARS-CoV-2_Motif_423]”, the “pull-down binding Z-score” value in data set [1] was -0.468; in data set [2], -0.29; in data set [3], -0.772; in data set [4] it was -0.52.

For the sequence “AUUAUGUGUACCUUCCUUACCCAGAUCCAUCAAGAAUCCUAGGGGCCGGCUGUUUUGUAGAUGAUAUCGUAAAAACAGAUGGUACACUUAUGAU [DMSMaPseq_invitro_SARS-CoV-2_Multi_47_ComplexLevel_1]”, the “pull-down binding Z-score” value was -0.234 in data set [1], 0.0322 in data set [2], 0.0551 in data set [3] and 0.511 in data set [4].

For “UCCUAAAGUGAAGUAUUUAUACUUUAUUAAAGGA [SHAPE_invitro_SARS-CoV-2_Motif_235]”, the “pull-down binding Z-score” value in data set [1] was -1.14; in data set [2], -0.48; in data set [3] it was -1.44; in data set [4], -1.61.

Regarding UGCUGAGGCUUCUAAGAAGCCUCGGCA, the “pull-down binding Z-score” value in data set [1] was 0.0854; in data set [2] it was -0.197; in data set [3], -0.224; in data set [4], -1.28.

Take “GGGCCUCCCUGUUCUCAGCGGUCC [IAV_invivo_PA_3_Motif_11+IAV_invivo_PA_3_Motif_11]”: the “pull-down binding Z-score” value in data set [1] is -0.00636; in data set [2], -0.456; in data set [3], -0.152; in data set [4], -0.287.

In the case of UGCUAACUAAGGGCA, the “pull-down binding Z-score” value is 0.877 in data set [1], -0.0827 in data set [2], 0.627 in data set [3] and -0.388 in data set [4].

Consider UGGGUUAUCUUCAACCUA, for which the “pull-down binding Z-score” value in data set [1] was -0.534; in data set [2], -0.424; in data set [3], -0.726; in data set [4], -0.937.

As to “GUUGAAGUUGUUGAUAAGUACUUUGAUUGUUACGAUGGUGGCUGUAUUAAUGCUAACCAAGUCAUCGUCAACAACCUAGACAAAUCAGCUGGUUUUCCAUUUAAU”, the “pull-down binding Z-score” value in data set [1] is -0.27; in data set [2], -0.0144; in data set [3], 0.0753; in data set [4], 0.567.

As for GGCUUCAUUUAAUUAUUUGAAGUC, the “pull-down binding Z-score” value is -0.867 in data set [1], -0.711 in data set [2], -1.24 in data set [3] and -1.75 in data set [4].

For GCGCUGCCAGAAACUGGCUGAGCGC [bulge-UG], the “pull-down binding Z-score” value in data set [1] is 0.553; in data set [2], -0.0129; in data set [3] it was 0.392; in data set [4], -0.14.

Regarding “CCACGCUCGUUCCGACACCGGAACGGCACUCGACACCGAGUGCAGCGUGG [3-way model-3_NoName]”, the “pull-down binding Z-score” value in data set [1] came to 1.17; in data set [2] it was 1.41; in data set [3], 1.51; in data set [4], 1.93.

Regarding “UCAUAACAGAUGCGCAAACAGGUUCAUCUAAGUGUGUGUGUUCUGUUAUUGA [SHAPE_invivo_SARS-CoV-2_Motif_383]”, the “pull-down binding Z-score” value in data set [1] is -0.657; in data set [2] it was -0.455; in data set [3] it was -0.196; in data set [4], 1.78.

For the sequence AACACUUCCCACAGAAGUGUU, the “pull-down binding Z-score” value in data set [1] is -0.222; in data set [2] it was -0.407; in data set [3], 0.0543; in data set [4], -0.817.

For “UGGGGAGUUGAACCUA [IAV_invivo_PB2_1_Motif_19+IAV_invivo_PB2_1_Motif_19]”, the “pull-down binding Z-score” value was 0.448 in data set [1], 0.0385 in data set [2], 0.376 in data set [3] and -0.437 in data set [4].

Consider “CUGAUCCUAGUUUUCUGGGUAG [SHAPE_invivo_SARS-CoV-2_Motif_108]”, for which the “pull-down binding Z-score” value in data set [1] is -0.135; in data set [2], -0.369; in data set [3], -0.0828; in data set [4] it was -0.359.

Regarding GAGGUGAUGCAGAUACUUACCUG [U1snRNP5ss-20], the “pull-down binding Z-score” value in data set [1] is 0.762; in data set [2], 0.169; in data set [3], 0.68; in data set [4] it was 0.343.

For the sequence AUCCGAUUUACAGGAU, the “pull-down binding Z-score” value is -0.684 in data set [1], -0.525 in data set [2], -0.894 in data set [3] and -1.16 in data set [4].

GCGCUGCCAGAAACUGGCAAGCGC [bulge-A]: the “pull-down binding Z-score” value was -0.289 in data set [1], -0.541 in data set [2], -0.493 in data set [3] and -1.12 in data set [4].

For GGUGUUUAUUACC, the “pull-down binding Z-score” value in data set [1] is -0.454; in data set [2], -0.382; in data set [3] it was -0.968; in data set [4] it was -0.855.

Consider “ACGACGACUACUAGCGUGCCUUUGUAAGCACAAGCUGAUGAGUACGAACUUAUGUACUCAUUCGUUUCGGAAGAGACAGGUACGUUAAUAGUUAAUAGCGU”, for which the “pull-down binding Z-score” value in data set [1] is -0.319; in data set [2], -0.333; in data set [3] it was -0.304; in data set [4] it was -0.217.

As to GAUCAGUUUCACCUAAACUGUUC, the “pull-down binding Z-score” value in data set [1] was -1.06; in data set [2] it was -0.626; in data set [3], -1.46; in data set [4], -1.08.

For GCGCAGCCAGAAACUGGCCGCGC [mismatch-AC], the “pull-down binding Z-score” value is -0.43 in data set [1], -0.295 in data set [2], -0.746 in data set [3] and -1 in data set [4].

Consider “UCUGGAGUAAAAGACUGUGUUGUAUUACACAGUUACUUCACUUCAGA”, for which the “pull-down binding Z-score” value in data set [1] was -0.0665; in data set [2], -0.0465; in data set [3], -0.481; in data set [4], -0.98.

As for “GUCUAGCUGUCCACGAGUGCUUUGUUAAGCGUGUUGACUGGAC”, the “pull-down binding Z-score” value is -0.128 in data set [1], -0.348 in data set [2], -0.138 in data set [3] and -0.24 in data set [4].

With “UCUGACAGUCCAUGUGAGUCUCAUGGAAAACAAGUAGUGUCAGA [SHAPE_invivo_SARS-CoV-2_Motif_364]”, the “pull-down binding Z-score” value is -0.582 in data set [1], -0.0689 in data set [2], -0.868 in data set [3] and -0.73 in data set [4].

In the case of “CCUGAAUCUUGG [IAV_invivo_PB1_2_Motif_21+IAV_invivo_PB1_2_Motif_21]”, the “pull-down binding Z-score” value is -0.834 in data set [1], -0.491 in data set [2], -0.925 in data set [3] and -0.502 in data set [4].

As to “UGGUUUGUAACACAAAGGAAUUUUUAUGAACCA [SHAPE_invivo_SARS-CoV-2_Motif_466]”, the “pull-down binding Z-score” value in data set [1] was 0.139; in data set [2], 0.046; in data set [3] it was -0.0419; in data set [4] it was -0.605.

“CUGGUCCAUGCUCAUACCCAAGCAGAAAGUGGCAGGCCCUCUUUGUAUCAGAAUGGACCAG [IAV_invivo_NS1_NEP_8_Motif_8+IAV_invivo_NS1_NEP_8_Motif_8]”: the “pull-down binding Z-score” value in data set [1] was -0.528; in data set [2], -0.24; in data set [3] it was -0.453; in data set [4], 0.562.

“GCCAGUUGGAGGC [IAV_invivo_PB1_2_Motif_15+IAV_invivo_PB1_2_Motif_15]”: the “pull-down binding Z-score” value in data set [1] is -0.0995; in data set [2] it was -0.201; in data set [3], -0.233; in data set [4], 0.153.

Regarding “GGUCAGAAUGAUC [IAV_invivo_NP_5_Motif_12+IAV_invivo_NP_5_Motif_12]”, the “pull-down binding Z-score” value in data set [1] is -0.394; in data set [2], -0.0405; in data set [3] it was -0.601; in data set [4], -0.437.

For “GUCUGGGAUCAACGAGUCAGCGGAC [IAV_invivo_PB1_2_Motif_28+IAV_invivo_PB1_2_Motif_28]”, the “pull-down binding Z-score” value was -0.28 in data set [1], -0.51 in data set [2], -0.256 in data set [3] and 0.401 in data set [4].
